Test system: peptide library, one residue held at a place counted from the Y acceptor
Experiment: relative phosphorylation of the sub-library (ratio to the mean residue at this position); higher = residue favoured
In short: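 Within 384-well plates, purified recombinant kinases phosphorylated biotinylated Tyr-centred peptide library mixtures over 90 min using 50 μM ATP spiked with γ-32P-ATP; each mixture fixed one residue at one position from −5 to +5. Streptavidin membrane capture, rinsing, phosphorimaging and ImageQuant gave the intensities. These were normalized per position to the sum of the 18 randomized residues (16 for the Ser/Thr-free library) and multiplied by that number.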

Sequence of FRK, construct: aa208-end, human (P42685 208-505, looked up): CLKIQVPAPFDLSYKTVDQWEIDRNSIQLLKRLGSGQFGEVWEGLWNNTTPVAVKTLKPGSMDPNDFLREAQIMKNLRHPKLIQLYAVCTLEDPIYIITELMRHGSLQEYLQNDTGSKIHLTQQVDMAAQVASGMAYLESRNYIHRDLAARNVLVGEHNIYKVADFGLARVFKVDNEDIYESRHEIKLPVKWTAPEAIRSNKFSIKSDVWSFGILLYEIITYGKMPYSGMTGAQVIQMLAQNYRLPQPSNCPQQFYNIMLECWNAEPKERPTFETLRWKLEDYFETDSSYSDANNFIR
Sequence of PTK2, construct: Full length, human (Q05397 whole entry, looked up): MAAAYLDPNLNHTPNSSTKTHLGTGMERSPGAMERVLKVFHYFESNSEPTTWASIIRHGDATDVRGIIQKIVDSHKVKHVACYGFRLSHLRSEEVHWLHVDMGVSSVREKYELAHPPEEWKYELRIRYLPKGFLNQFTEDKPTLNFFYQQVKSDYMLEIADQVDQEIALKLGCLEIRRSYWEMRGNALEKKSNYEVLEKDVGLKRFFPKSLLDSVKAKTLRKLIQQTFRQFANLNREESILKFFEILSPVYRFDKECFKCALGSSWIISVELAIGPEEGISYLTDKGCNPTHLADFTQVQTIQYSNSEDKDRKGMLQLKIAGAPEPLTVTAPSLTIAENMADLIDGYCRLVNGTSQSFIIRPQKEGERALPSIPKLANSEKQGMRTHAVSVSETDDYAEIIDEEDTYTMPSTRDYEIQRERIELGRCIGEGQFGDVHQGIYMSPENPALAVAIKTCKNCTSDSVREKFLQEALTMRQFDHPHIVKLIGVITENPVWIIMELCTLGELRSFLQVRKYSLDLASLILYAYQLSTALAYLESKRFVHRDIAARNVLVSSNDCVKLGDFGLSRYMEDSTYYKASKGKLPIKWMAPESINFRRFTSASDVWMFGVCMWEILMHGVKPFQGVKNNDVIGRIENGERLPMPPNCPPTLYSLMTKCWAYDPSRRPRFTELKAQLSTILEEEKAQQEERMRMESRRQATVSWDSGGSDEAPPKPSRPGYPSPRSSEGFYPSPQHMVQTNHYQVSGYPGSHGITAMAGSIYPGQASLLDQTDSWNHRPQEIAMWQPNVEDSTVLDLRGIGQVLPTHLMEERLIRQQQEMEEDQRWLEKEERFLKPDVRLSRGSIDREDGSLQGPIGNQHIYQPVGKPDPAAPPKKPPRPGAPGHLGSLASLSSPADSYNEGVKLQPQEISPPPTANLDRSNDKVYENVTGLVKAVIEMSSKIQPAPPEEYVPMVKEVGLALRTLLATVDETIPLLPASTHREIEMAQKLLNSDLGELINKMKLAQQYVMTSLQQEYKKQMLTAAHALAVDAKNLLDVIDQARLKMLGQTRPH

FRK, construct: aa208-end, human (from UniProt P42685)
relative phosphorylation
Details | at +1 | at +2 | at +3 | at +4 | at +5 | at -1 | at -2 | at -3 | at -4 | at -5
A fixed | 1.2 | 0.883 | 0.702 | 0.821 | 1.01 | 0.594 | 1.14 | 0.808 | 1.11 | 1.05
D fixed | 0.563 | 0.473 | 0.24 | 0.573 | 0.93 | 0.836 | 1.19 | 1.92 | 1.14 | 1.12
E fixed | 2.3 | 0.65 | 0.193 | 0.549 | 0.861 | 1.92 | 1.73 | 2.11 | 1.84 | 0.931
F fixed | 1.03 | 1.6 | 1.95 | 1.38 | 1.21 | 0.878 | 0.642 | 0.892 | 1.03 | 1.07
G fixed | 0.519 | 0.445 | 0.589 | 1.01 | 0.861 | 0.34 | 1.13 | 1.09 | 1.27 | 1.21
H fixed | 0.91 | 0.758 | 0.741 | 1.32 | 1.15 | 0.777 | 1.02 | 0.902 | 0.913 | 0.993
I fixed | 1.54 | 1.29 | 2.29 | 0.88 | 0.807 | 3.11 | 1.1 | 0.761 | 0.923 | 1.07
K fixed | 0.343 | 0.897 | 0.475 | 1.23 | 1.06 | 0.27 | 0.568 | 0.631 | 0.719 | 0.858
L fixed | 1.25 | 1.36 | 1.56 | 0.937 | 1.01 | 2.46 | 0.895 | 0.852 | 0.993 | 1.09
M fixed | 1.76 | 0.966 | 1.3 | 1.22 | 0.914 | 1.13 | 0.67 | 0.895 | 0.929 | 1.12
N fixed | 0.382 | 1.01 | 0.568 | 0.737 | 0.702 | 0.573 | 1.01 | 1.06 | 0.888 | 0.973
P fixed | 0.116 | 0.601 | 0.87 | 0.971 | 1.15 | 0.452 | 1.3 | 1.04 | 1.1 | 1.11
Q fixed | 1.23 | 0.748 | 0.469 | 0.965 | 0.974 | 0.664 | 1.01 | 0.838 | 1.06 | 0.966
R fixed | 0.492 | 1.11 | 1.52 | 1.35 | 1.2 | 0.311 | 0.656 | 0.674 | 0.769 | 0.863
S fixed | 0.919 | 1.09 | 0.642 | 0.863 | 1.01 | 0.433 | 1.03 | 0.938 | 0.792 | 0.836
T fixed | 0.825 | 1.17 | 0.767 | 0.771 | 0.853 | 0.9 | 0.9 | 0.882 | 0.634 | 0.8
V fixed | 1.18 | 1.21 | 1.71 | 0.865 | 0.934 | 1.9 | 1.3 | 0.778 | 0.793 | 0.825
W fixed | 1.44 | 1.73 | 1.43 | 1.55 | 1.36 | 0.453 | 0.716 | 0.929 | 1.09 | 1.11
pThr fixed | 1.09 | 1.58 | 0.217 | 0.462 | 0.638 | 2.06 | 1.3 | 1.28 | 0.91 | 0.853
pTyr fixed | 4.6 | 2.61 | 0.782 | 0.659 | 0.692 | 1.06 | 1.28 | 1.7 | 1.57 | 0.867

PTK2, construct: Full length, human (from UniProt Q05397)
relative phosphorylation
Details | at +1 | at +2 | at +3 | at +4 | at +5 | at -1 | at -2 | at -3 | at -4 | at -5
A fixed | 1.98 | 0.732 | 0.861 | 0.842 | 1.02 | 0.632 | 1.05 | 0.673 | 0.936 | 0.931
D fixed | 1.73 | 1.7 | 0.677 | 0.971 | 1.21 | 5.68 | 1.57 | 1.78 | 1.51 | 1.39
E fixed | 1.85 | 2.34 | 0.705 | 1.19 | 1.23 | 1.38 | 1.77 | 2.18 | 1.61 | 1.37
F fixed | 0.794 | 1.18 | 1.29 | 0.961 | 0.944 | 0.654 | 0.858 | 1.06 | 1.21 | 1.02
G fixed | 1.09 | 0.625 | 0.731 | 1.14 | 1.21 | 0.575 | 1.03 | 0.851 | 1.08 | 1.1
H fixed | 0.724 | 0.825 | 0.752 | 1.17 | 0.86 | 0.57 | 0.801 | 1.42 | 0.891 | 0.935
I fixed | 0.99 | 1.13 | 2.19 | 0.964 | 0.811 | 1.17 | 0.839 | 0.757 | 0.968 | 1.11
K fixed | 0.526 | 0.574 | 0.561 | 0.743 | 0.656 | 0.508 | 0.688 | 0.702 | 0.708 | 0.806
L fixed | 0.66 | 0.909 | 1.58 | 0.792 | 0.933 | 0.784 | 0.814 | 0.801 | 1.08 | 1.04
M fixed | 0.833 | 0.912 | 1.03 | 1.04 | 0.9 | 0.637 | 0.76 | 1.16 | 0.859 | 1.04
N fixed | 0.699 | 1.04 | 0.613 | 0.759 | 0.852 | 0.882 | 1.42 | 1.11 | 0.917 | 0.976
P fixed | 0.506 | 0.653 | 1.5 | 1.07 | 1.63 | 0.553 | 1.25 | 0.665 | 0.895 | 0.934
Q fixed | 0.914 | 0.677 | 0.631 | 0.824 | 0.841 | 0.578 | 0.946 | 0.85 | 1 | 0.909
R fixed | 0.538 | 0.612 | 0.59 | 0.758 | 0.678 | 0.512 | 0.689 | 0.78 | 0.725 | 0.868
S fixed | 1.1 | 0.804 | 0.713 | 0.849 | 1.07 | 0.577 | 1.02 | 0.742 | 0.785 | 0.802
T fixed | 0.879 | 0.815 | 0.795 | 0.815 | 1.21 | 0.76 | 0.765 | 0.702 | 0.724 | 0.808
V fixed | 1.27 | 0.965 | 1.61 | 0.933 | 0.868 | 0.964 | 0.882 | 0.719 | 0.831 | 0.884
W fixed | 0.911 | 1.52 | 1.18 | 2.19 | 1.07 | 0.579 | 0.833 | 1.05 | 1.27 | 1.07
pThr fixed | 5.07 | 4.12 | 0.915 | 1.1 | 1.89 | 7.51 | 2.09 | 1.88 | 1.74 | 1.39
pTyr fixed | 3.81 | 12.2 | 1.18 | 1.35 | 1.58 | 1.35 | 1.33 | 1.76 | 2.01 | 1.55

From the supplement of paper PMC11136658
